Laboratory results taken from patent publication US20250296996A1 (BROADWING BIO, published 2025).

Experiments:
P66 (rabbit ANGPTL7-his) = molecular target: T1, P66 (rabbit ANGPTL7-his) (rabbit, UniProt G1T4P1 27-344); experiment: BLI Octet HTX; IgG on AHC sensor; P66 at 200 nM; 1:1 fit
T1 construct: mature; also called rabbit ANGPTL7 protein
T1 sequence: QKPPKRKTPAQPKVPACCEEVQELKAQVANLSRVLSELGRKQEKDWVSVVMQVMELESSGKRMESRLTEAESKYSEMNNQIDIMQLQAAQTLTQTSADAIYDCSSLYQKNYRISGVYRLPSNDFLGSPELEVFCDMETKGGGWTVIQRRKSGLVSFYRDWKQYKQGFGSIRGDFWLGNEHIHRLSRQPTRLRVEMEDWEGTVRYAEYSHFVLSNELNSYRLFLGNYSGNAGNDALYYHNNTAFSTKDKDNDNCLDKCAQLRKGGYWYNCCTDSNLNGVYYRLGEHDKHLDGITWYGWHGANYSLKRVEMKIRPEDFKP
Description: (§1) Experiments were also conducted to determine the reactivity and dissociation constants (KA) of anti-ANGPTL7 antibodies with the rabbit ANGPTL7 protein. Binding experiments were performed on Octet HTX (ForteBio) in Rx PBS, pH 7.4, 0.1 mg/mi BSA, 0.05% Sodium Azide, and 0.02% Tween 20. Antibodies at a concentration of 50 nM were loaded on pre-hydrated AHC biosensors for 5 min. The loaded sensors were dipped into monovalent P66 (rabbit ANGPTL7-his) at a concentration of 200 nM for 5 min of association, followed by 10 min of dissociation. […] Responses (nm) at the end of association were also determined (Table 6).

[1] = molecular target: T2, P60 (huANGPTL7-Fibrinogen-his) (human, UniProt O43827 129-343); experiment: BLI Octet HTX; IgG on AHC sensor; P60 at 200 nM; 1:1 fit
T2 construct: also called human ANGPTL7 fibrinogen domain; not shown: C-terminal short linker and His tag
T2 sequence: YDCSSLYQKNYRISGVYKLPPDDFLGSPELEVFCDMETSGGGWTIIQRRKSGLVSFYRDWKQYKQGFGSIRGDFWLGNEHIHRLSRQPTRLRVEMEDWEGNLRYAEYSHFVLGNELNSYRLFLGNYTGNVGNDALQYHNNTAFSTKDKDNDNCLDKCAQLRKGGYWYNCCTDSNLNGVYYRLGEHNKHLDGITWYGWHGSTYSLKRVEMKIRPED
Description: (§2) ANGPTL7 Antibody Kinetics. Experiments were conducted to determine the reactivity and dissociation constants (KD) of anti-ANGPTL7 antibodies with the human fibrinogen domain of the ANGPTL7 protein. Binding experiments were performed on Octet HTX (ForteBio) in 1×PBS, pH 7.4, 0.1 mg/ml BSA, 0.05% Sodium Azide, and 0.02 Tween 20. Antibodies at a concentration of 50 nM were loaded on pre-hydrated AHC biosensors for 5 min. The loaded sensors were dipped into monovalent P60 (huANGPTL7-Fibrinogen-his) at a concentration of 200 nM for 5 min association, followed by 10 min dissociation. […] Responses (nm) at the end of association were also determined (Table 2).

[2] = molecular target: T3, muANGPTL7-his (R&D Systems) (mouse, UniProt Q8R1Q3 22-337, limits assumed); experiment: BLI Octet HTX; IgG on AHC sensor; muANGPTL7-his at 200 nM; 1:1 fit
T3 construct: Bought protein; also called mouse ANGPTL7 protein
T3 sequence (looked up): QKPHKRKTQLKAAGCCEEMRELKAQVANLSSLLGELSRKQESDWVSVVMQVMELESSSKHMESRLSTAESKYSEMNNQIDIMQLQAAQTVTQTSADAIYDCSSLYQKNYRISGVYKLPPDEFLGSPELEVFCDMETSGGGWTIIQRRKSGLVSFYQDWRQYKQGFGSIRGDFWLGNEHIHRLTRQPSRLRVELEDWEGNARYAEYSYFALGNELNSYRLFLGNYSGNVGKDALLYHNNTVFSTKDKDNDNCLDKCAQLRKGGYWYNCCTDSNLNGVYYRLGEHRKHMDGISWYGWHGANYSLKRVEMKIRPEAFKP
Description: as §1, with “(KD)” for “(KA)”, “mouse” for “rabbit”, “1×PBS,” for “Rx PBS,”, “[…].” for “min.”, “muANGPTL7-his (R&D Systems)” for “P66 (rabbit ANGPTL7-his)”, “5).” for “6).”

[3] = molecular target: T4, Pext-01 (huANGTPL7-FLAG multimer) (human, UniProt O43827 27-346); experiment: BLI Octet HTX; IgG on AHC sensor; Pext-01 at 100 nM; 1:1 fit; apparent KD
T4 construct: also called PExt-1; human wild type ANGPTL7 multimer; not shown: FLAG tag
T4 sequence: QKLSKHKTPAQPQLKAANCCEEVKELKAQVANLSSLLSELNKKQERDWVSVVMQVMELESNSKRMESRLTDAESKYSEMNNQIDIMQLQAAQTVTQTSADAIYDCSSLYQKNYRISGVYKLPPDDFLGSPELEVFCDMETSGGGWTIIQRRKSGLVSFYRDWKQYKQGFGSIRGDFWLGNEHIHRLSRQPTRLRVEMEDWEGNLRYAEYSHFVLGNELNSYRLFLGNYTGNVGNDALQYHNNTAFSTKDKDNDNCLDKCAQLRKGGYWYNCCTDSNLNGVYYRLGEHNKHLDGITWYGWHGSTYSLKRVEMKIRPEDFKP
Description: Experiments were also conducted to determine the reactivity and dissociation constants (KD) of anti-ANGPTL7 antibodies with the human ANGPTL7 multimer protein. Binding experiments were performed on Octet HTX (ForteBio) in 1×PBS, pH 7.4, 0.1 mg/ml BSA, 0.05% Sodium Azide, and 0.02% Tween 20. Antibodies at a concentration of 50 nM were loaded on pre-hydrated AHC biosensors for 5 mi. The loaded sensors were dipped into Pext-01 (huANGTPL7-FLAG) at a concentration of 100 nM for 5 min of association, followed by 10 min of dissociation. […] Responses (nm) at the end of association were also determined (Table 7).

[4] = molecular target: T3, muANGPTL7-his (R&D Systems); experiment: BLI Octet HTX; IgG on AHC sensor; muANGPTL7-his at 200 nM
Description: as §1, with “(KD)” for “(KA)”, “mouse” for “rabbit”, “1×PBS,” for “Rx PBS,”, “[…].” for “min.”, “muANGPTL7-his (R&D Systems)” for “P66 (rabbit ANGPTL7-his)”, “5).” for “6).”

[5] = molecular target: T2, P60 (huANGPTL7-Fibrinogen-his); experiment: BLI Octet HTX; IgG on AHC sensor; P60 at 200 nM
Description: as §2

Row | Binder | Kd (P66 (rabbit ANGPTL7-his)) | Response (P66 (rabbit ANGPTL7-his)) | Kd [1] | Response [1] | Kd [2] | Response [2] | Response [3] | Kd [3] | binding result [4] | binding result [5]
1 | ATX-P-427 (antibody, human IgG1, kappa, N297A, V domains shown, Full chains (VH + hIgG1-Agly-Fc)) VH: EVQLVESGGGVVRPGGSLRLSCAASGFSFDDYGMSWVRQVPGKGLEWVSGINWNGGSTGYADSVKGRFTISRDNAKNSLYLQMSSLRAEDTALYYCASYSGSFRDAFDIWGQGTMVTVSS VL: AIQMTQSPSSLSASVGDRVTITCRASQGIRNDLGWYQQKPGKAPKLLIYAASSLQSGVPSRFSGSGSGTDFTLTISSLQPEDFATYYCLQDYNYPYTFGQGTKLEIKR | 3.21 nM | 0.93 nm | 65.1 nM | 0.5 nm | 10.3 nM | 0.48 nm | 0.82 nm |  |  | 
2 | ATX-P-439 (antibody, human IgG1, kappa, N297A, V domains shown, Full chains (VH + hIgG1-Agly-Fc)) VH: not shown VL: DIQMTQSPSSVSASVGDRVTITCRASQGISSWLAWYQQKPGKAPKLLIYAASSLQSGVPSRFSGSGSGTDFTLTISSLQPEDFATYYCQQANSFPWTFGQGTKVDIKR | 2.95 nM | 0.92 nm |  | 0.28 nm |  | 0.53 nm | 0.87 nm | 12.8 nM |  | 
3 | ATX-P-442 (antibody, human IgG1, kappa, N297A, V domains shown, Full chains (VH + hIgG1-Agly-Fc)) VH: QITLKESGPTLVKPTQTLTLTCTFSGFSLSTSGVGVGWIRQPPGKALEWLALIYWNDDKRYSPSLKSRLTITKDTSKNLVVLTMTNMDPVDTATYYCARDYGDYWFFDLWGRGTPVTVSS VL: DIQMTQSPSSLSASVGDRVTITCRASQGISSYLAWYQQKPGKAPKLLIYAASSLQSGVPSRFSGSGSGTDFTLTISSLQPEDFATYYCQQSFSTPLTFGGGTKLEIKR | 3.38 nM | 0.95 nm | 4.62 nM | 0.69 nm |  | 0.32 nm |  |  |  | 
4 | ATX-P-425 (antibody, human IgG1, kappa, N297A, V domains shown, Full chains (VH + hIgG1-Agly-Fc)) VH: EVQLVESGGGLVKPGGSLRLSCAASGFTFSTYSMNWVRQAPGKGLEWVSSITSSSSYMFYADSVMGRFTISRDNAKNSLYLQMNSLRAEDTADYYCARDSNWGEAFDIWGQGTMVTVSS VL: DIQMTQSPSSLSASVGDRVTITCRASQGIRIDLGWFQQKPGKAPKRLIYAASSLPSGVPSRFSGSGSGTEFTLTISSLQPEDFATYYCLQHNSYPWTFGQGTKVEIKR | 2.38 nM | 0.95 nm | 305 nM |  |  |  | 0.83 nm |  |  | 
5 | ATX-P-423 (antibody, human IgG1, kappa, N297A, V domains shown, Full chains (VH + hIgG1-Agly-Fc)) VH: QVQLVESGGGVVQPGRSLRLSCAASGFTFSSYGMHWVRQAPGKGLEWVSHITYDGSDKYYGDSVKGRFTISRDNSKNTLYLQMNSLRAEDTAVYYCAKDGYSSGWWYFDYWGQGTLVTVSS VL: DIQMTQSPSSLSASVGDRVTITCRASQGIRNDLGWYQQKPGKAPKRLIYAASSLQSGVPSRFSGSGSGTEFALTISSLQPEDFATYYCLQHNSYPLTFGGGTKLEIKR | 6.69 nM | 1.02 nm | 18.3 nM |  |  | 0.14 nm | 0.87 nm |  | no binding (tested: 200 nM) | 
6 | ATX-P-424 (antibody, human IgG1, kappa, N297A, V domains shown, Full chains (VH + hIgG1-Agly-Fc)) VH: EVQLVESGGGLVKPGGSLRLSCAASGFTFSSYSMNWVRQAPGKGLEWVSSITSSSYIFYADSLKGRFTISRDNAKNSLFLQMNSLRAEDTAVYYCARDSNWGEAFDIWGQGTMVTVSS VL: DIQMTQSPSSLSASVGDRVTITCRASQGIRNDLGWYQQKPGKAPKRLIYAASSLPSGVPSRFSGSGSGTEFTLTISSLQPEDFAIYYCLQHNSYPWTFGQGTKVEIKR | 4.65 nM | 0.93 nm | 106 nM |  |  | 0.14 nm | 0.76 nm |  | no binding (tested: 200 nM) | 
7 | ATX-P-448 (antibody, human IgG1, kappa, N297A, V domains shown, Full chains (VH + hIgG1-Agly-Fc)) VH: QVQLVESGGGVVQPGRSLRLSCAASGFPFSSYGMHWVRQAPGKGLEWVAVMSYDGINGYYADSVKGRFTISRDNSKNTLYLQMNSLRAEDTAVYYCARLVYADDAFDIWGQGTTVTVSS VL: EIVLTQSPATLSLSPGERATLSCRASQSVSSYLAWYQQKPGQAPRLLIYDASNRATGIPARFSGSGSGTDFTLTISSLEPEDFAVYYCQQRSNWPLTFGGGTKVEIKR | 0.949 nM | 0.75 nm | 4.69 nM |  |  | 0.69 nm | 0.58 nm |  |  | 
8 | ATX-P-440 (antibody, human IgG1, kappa, N297A, V domains shown, Full chains (VH + hIgG1-Agly-Fc)) VH: EVQLVESGGGVVRPGGSLRLSCAASGFTFDDYGMSWVRQAPGKGLEWVSTINWNGGNTGYADSVKGRFTISRDNAKNSLYLQMNSLRAEDTALYYCARDEGAAGLGYYFDYWGQGTLVTVSS VL: DIQMTQSPSTLSASVGDRVTITCRASQSISSWLAWYQQKPGKAPKLLIYATSSLQSGVPSRFSGSGSGTDFTLTISSLQPEDFATYYCQQSYSTPITFGQGTRLEIKR | 6.27 nM | 0.57 nm | 55.8 nM |  | 55.3 nM | 0.21 nm | 0.61 nm |  |  | 
9 | ATX-P-432 (antibody, human IgG1, kappa, N297A, V domains shown, Full chains (VH + hIgG1-Agly-Fc)) VH: QVQLVQSGAEVKKPGASVKVSCKASGYTFTDYYIHWVRQAPGPGLEWLGWINPNTGATKYAQKFQGRVTMTRDTSISTAYMELSRLRSDDTAVYYCAREDNGNYGDVFDIWGQGTMVTVSS VL: not shown |  |  |  |  |  | 0.03 nm |  |  | no binding (tested: 200 nM) | 
10 | ATX-P-445 (antibody, human IgG1, kappa, N297A, V domains shown, Full chains (VH + hIgG1-Agly-Fc)) VH: EVQLVESGGGLVQPGGSLRLSCAASGFTFSSHDMHWVRQVTGKGLEWVSGIDPAGDTYYPDSVKGRFTISRENAKNSLYLQMNSLRAGDTAVYYCTRGEASSSSEDAFDIWGQGTMVTVSS VL: not shown |  |  |  | 0.12 nm |  | 0.01 nm | 0.8 nm |  | no binding (tested: 200 nM) | no binding (tested: 200 nM)
